These results are taken from the supplement of paper PMC9112550, “Optimization of the antimicrobial peptide Bac7 by deep mutational scanning” (BMC Biology, 2022).
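Further: peptides expressed intracellularly from a pBAD plasmid library in pooled LB shake-flask culture, induced with 0.3% L-arabinose, DNA abundance read by NGS, three biological replicates, DESeq2 with apeglm shrinkage.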

The test system of the data set is Escherichia coli TOP10. Description: shrunken log2 fold change of peptide-encoding DNA abundance (4.5 h post-induction vs induction); higher = less antimicrobial activity (less host growth inhibition). As to conditions: time post-induction: 4.5 h; library: site-saturation at positions 5, 18, 19, 20.
Turning to RRIRYRPPRLPRPRPRPTMEPRP, the “shrunken log2 fold change” value amounted to 0.0667.

With RRIRGRPPRLPRPRPRPLCWPRP, the “shrunken log2 fold change” value is 0.774.

As for RRIRERPPRLPRPRPRPVMPPRP, the “shrunken log2 fold change” value was -0.259.

As for RRIRIRPPRLPRPRPRPIWQPRP, the “shrunken log2 fold change” value was 0.182.

Regarding RRIRTRPPRLPRPRPRPRKDPRP, the “shrunken log2 fold change” value was -0.0522.

As for RRIRLRPPRLPRPRPRPPKQPRP, the “shrunken log2 fold change” value is 0.0446.

Turning to RRIRCRPPRLPRPRPRPYEHPRP, the “shrunken log2 fold change” value was -0.554.

Take RRIRQRPPRLPRPRPRPEKRPRP: the “shrunken log2 fold change” value stood at 0.00771.

With RRIRWRPPRLPRPRPRPTPMPRP, the “shrunken log2 fold change” value came out at 0.24.

Consider RRIRMRPPRLPRPRPRPRRQPRP, for which the “shrunken log2 fold change” value worked out at 1.13.

For the sequence RRIRPRPPRLPRPRPRPGWIPRP, the “shrunken log2 fold change” value is -0.0354.

For the sequence RRIRARPPRLPRPRPRPKTLPRP, the “shrunken log2 fold change” value was 0.343.

For the sequence RRIRCRPPRLPRPRPRPTTFPRP, the “shrunken log2 fold change” value is -0.635.

Consider RRIRNRPPRLPRPRPRPVLSPRP, for which the “shrunken log2 fold change” value worked out at 0.0114.

Take RRIRWRPPRLPRPRPRPGRDPRP: the “shrunken log2 fold change” value came out at 0.122.

RRIRLRPPRLPRPRPRPLLTPRP: the “shrunken log2 fold change” value was 0.0657.

In the case of RRIRKRPPRLPRPRPRPGTYPRP, the “shrunken log2 fold change” value is -0.0508.

For the sequence RRIRCRPPRLPRPRPRPYWVPRP, the “shrunken log2 fold change” value is -0.528.

Turning to RRIRARPPRLPRPRPRPRFFPRP, the “shrunken log2 fold change” value came out at 0.453.

As to RRIRIRPPRLPRPRPRPNERPRP, the “shrunken log2 fold change” value is -0.319.

For the sequence RRIRERPPRLPRPRPRPAFDPRP, the “shrunken log2 fold change” value worked out at 0.107.

For the sequence RRIRGRPPRLPRPRPRPAPWPRP, the “shrunken log2 fold change” value is 0.891.

RRIRLRPPRLPRPRPRPNWMPRP: the “shrunken log2 fold change” value is -0.296.

In the case of RRIRHRPPRLPRPRPRPYAAPRP, the “shrunken log2 fold change” value is -0.519.

Turning to RRIRWRPPRLPRPRPRPHKVPRP, the “shrunken log2 fold change” value was -0.431.

On to RRIRIRPPRLPRPRPRPFPNPRP, for which the “shrunken log2 fold change” value is -0.939.

As for RRIRFRPPRLPRPRPRPAVHPRP, the “shrunken log2 fold change” value is -0.0819.

Take RRIRPRPPRLPRPRPRPDTMPRP: the “shrunken log2 fold change” value was -0.649.

RRIRLRPPRLPRPRPRPPPLPRP: the “shrunken log2 fold change” value turned out to be 1.12.

For the sequence RRIRGRPPRLPRPRPRPPGFPRP, the “shrunken log2 fold change” value is 0.484.

With RRIRSRPPRLPRPRPRPYKPPRP, the “shrunken log2 fold change” value is -0.195.

With RRIRARPPRLPRPRPRPDVCPRP, the “shrunken log2 fold change” value was -0.0214.

Take RRIRNRPPRLPRPRPRPNKVPRP: the “shrunken log2 fold change” value is -0.642.

For RRIRSRPPRLPRPRPRPPGRPRP, the “shrunken log2 fold change” value was found to be 0.482.

As to RRIRDRPPRLPRPRPRPPKGPRP, the “shrunken log2 fold change” value came to 0.644.

RRIRLRPPRLPRPRPRPASNPRP: the “shrunken log2 fold change” value was -0.124.

Take RRIRHRPPRLPRPRPRPDGFPRP: the “shrunken log2 fold change” value is -0.015.

On to RRIRNRPPRLPRPRPRPNQQPRP, for which the “shrunken log2 fold change” value is -0.0748.

Take RRIRYRPPRLPRPRPRPMQLPRP: the “shrunken log2 fold change” value was 0.219.

Regarding RRIRARPPRLPRPRPRPSKWPRP, the “shrunken log2 fold change” value is -0.101.

RRIRFRPPRLPRPRPRPIIYPRP: the “shrunken log2 fold change” value is -0.671.

For the sequence RRIRCRPPRLPRPRPRPDPPPRP, the “shrunken log2 fold change” value turned out to be 0.52.

Turning to RRIRIRPPRLPRPRPRPCWQPRP, the “shrunken log2 fold change” value is -0.211.

Regarding RRIRDRPPRLPRPRPRPPWWPRP, the “shrunken log2 fold change” value turned out to be 0.461.

As to RRIRMRPPRLPRPRPRPLNQPRP, the “shrunken log2 fold change” value was -0.0442.

Take RRIRLRPPRLPRPRPRPDQIPRP: the “shrunken log2 fold change” value stood at 0.018.

Consider RRIRARPPRLPRPRPRPENVPRP, for which the “shrunken log2 fold change” value came to 0.251.

Consider RRIRIRPPRLPRPRPRPAKRPRP, for which the “shrunken log2 fold change” value worked out at 0.0281.

RRIRSRPPRLPRPRPRPLPMPRP: the “shrunken log2 fold change” value was found to be 0.256.

For RRIRCRPPRLPRPRPRPPHQPRP, the “shrunken log2 fold change” value is 0.746.

Turning to RRIRWRPPRLPRPRPRPWVQPRP, the “shrunken log2 fold change” value was 0.128.

Take RRIRRRPPRLPRPRPRPGLSPRP: the “shrunken log2 fold change” value was -0.0549.

Take RRIRVRPPRLPRPRPRPVTVPRP: the “shrunken log2 fold change” value was -0.0359.

Consider RRIRPRPPRLPRPRPRPMYVPRP, for which the “shrunken log2 fold change” value was -1.06.

Consider RRIRMRPPRLPRPRPRPYSGPRP, for which the “shrunken log2 fold change” value was -0.00278.

RRIRLRPPRLPRPRPRPTNFPRP: the “shrunken log2 fold change” value was -0.0757.

As for RRIRHRPPRLPRPRPRPRKHPRP, the “shrunken log2 fold change” value is -0.113.

With RRIRARPPRLPRPRPRPGDWPRP, the “shrunken log2 fold change” value worked out at 0.8.

With RRIRWRPPRLPRPRPRPMDEPRP, the “shrunken log2 fold change” value came to 0.0255.

With RRIRHRPPRLPRPRPRPGGQPRP, the “shrunken log2 fold change” value was 0.0463.

For the sequence RRIRDRPPRLPRPRPRPLDPPRP, the “shrunken log2 fold change” value was determined as 0.0323.

Consider RRIRERPPRLPRPRPRPDDCPRP, for which the “shrunken log2 fold change” value was -0.0573.

Take RRIRLRPPRLPRPRPRPQNTPRP: the “shrunken log2 fold change” value was -0.42.

In the case of RRIRHRPPRLPRPRPRPSQHPRP, the “shrunken log2 fold change” value was -0.411.

With RRIRVRPPRLPRPRPRPGLWPRP, the “shrunken log2 fold change” value was determined as 0.76.

On to RRIRNRPPRLPRPRPRPYALPRP, for which the “shrunken log2 fold change” value was -0.399.

In the case of RRIRIRPPRLPRPRPRPNHFPRP, the “shrunken log2 fold change” value was -0.694.

Regarding RRIRERPPRLPRPRPRPERKPRP, the “shrunken log2 fold change” value turned out to be 0.0538.

RRIRARPPRLPRPRPRPHQQPRP: the “shrunken log2 fold change” value is 0.33.

As for RRIRERPPRLPRPRPRPRFCPRP, the “shrunken log2 fold change” value is -0.0399.

In the case of RRIRQRPPRLPRPRPRPVSDPRP, the “shrunken log2 fold change” value was -0.0568.

Regarding RRIRIRPPRLPRPRPRPNSIPRP, the “shrunken log2 fold change” value was -0.366.

Consider RRIRNRPPRLPRPRPRPEIGPRP, for which the “shrunken log2 fold change” value amounted to 0.195.

Consider RRIRFRPPRLPRPRPRPSEYPRP, for which the “shrunken log2 fold change” value was -0.288.

As for RRIRTRPPRLPRPRPRPSRRPRP, the “shrunken log2 fold change” value stood at 0.128.

Regarding RRIRSRPPRLPRPRPRPGSKPRP, the “shrunken log2 fold change” value was -0.0053.

As for RRIRVRPPRLPRPRPRPGPKPRP, the “shrunken log2 fold change” value was determined as 0.254.

Consider RRIRNRPPRLPRPRPRPLAFPRP, for which the “shrunken log2 fold change” value was found to be 0.0414.

Take RRIRTRPPRLPRPRPRPEVSPRP: the “shrunken log2 fold change” value is -0.28.

Turning to RRIRKRPPRLPRPRPRPAWFPRP, the “shrunken log2 fold change” value is 0.0729.

Turning to RRIRMRPPRLPRPRPRPVITPRP, the “shrunken log2 fold change” value was 0.043.

Take RRIRMRPPRLPRPRPRPTRKPRP: the “shrunken log2 fold change” value was 1.6.

On to RRIRARPPRLPRPRPRPKMTPRP, for which the “shrunken log2 fold change” value was determined as 0.365.

With RRIRGRPPRLPRPRPRPKGGPRP, the “shrunken log2 fold change” value came out at 0.901.

For the sequence RRIRPRPPRLPRPRPRPRCPPRP, the “shrunken log2 fold change” value is 0.208.

With RRIRDRPPRLPRPRPRPHFAPRP, the “shrunken log2 fold change” value is -0.103.

Regarding RRIRPRPPRLPRPRPRPKISPRP, the “shrunken log2 fold change” value was -0.0927.

For the sequence RRIRRRPPRLPRPRPRPIKIPRP, the “shrunken log2 fold change” value is -0.0791.

Take RRIRVRPPRLPRPRPRPRHRPRP: the “shrunken log2 fold change” value amounted to 0.0675.

As for RRIRLRPPRLPRPRPRPFDFPRP, the “shrunken log2 fold change” value is -0.281.

On to RRIRERPPRLPRPRPRPPECPRP, for which the “shrunken log2 fold change” value stood at 0.0263.
